Data taken from the DeepSol protein solubility set.

Assay: soluble on expression in E. coli; label from the status in PepcDB or PDB records

Sequence	soluble on expression in E. coli
MAHHHHHHMAQEISNLVKKYNVTWQQTMLRIYDPKETVEFYEKNFGMINIHTYHFNEYNFSLYFLITPPYDEEERKKLPEPNTKESEKYLWNLNTVCLELTYNHNSQEKLSNGNNENDRGFGHIAFNCNDVIEQCDNLFKKNVKFHKLPHETKMKTIGFALDPNNYWIEIVKRSNQVKWKNYKNITNFSQTMIRVKNPEKSLYFYIHILGMKLIHVKHCSDFSLYFLKSNYACAENNKEMIEDQSNKNTNEIYDFNSLKNSYQTDEDYENFKQSWEPVLELTHNHGTEDDDNFSYHNGNTEPRGFGHIGFLVNDLENYCKELETLNVTFKKKVTEGLMKNIAFIYDPDNYVIELIQRDTSFIAK	soluble
MGHHHHHHSHMTSEQIPNRVLLFDGVCNLCNGAVQFIIKRDPDGLISFTSLQSETGQSLLKKSGLPTDRFDSFVFIEDGQVYTKSTAAIKVFRHLRGPWRLFVLFFAVPKPVRDMVYSFIAKNRYKWFGKKNECMLPSPSIKKRFLP	not soluble
MVEVLTLGVIQTTLDSTAAWNTDSGEPKISASEDSRAWYEIRRAMRALADHEDQPRIILLPELALPRTRLDDFERLVCSMNALAIVGVDYRLNHRTKSAKNEGLVLVPRNFWKRTPSRYAARVWFGKRDPAPAEASGFKEYMPPWAFHSDPNVYVFDAGPYGRIGVSICYDFMDIERALLYRGRVHHLFVIAYNRDVKLFESLAVSLSRTAFCNVVVCNTGYFGGSLVVSPYYEAFKRIGYSVDGGKVFTAQCVPLPVRDLDAAIHGFDTKPNATYKHLPPGFTTSMDHTAALPEGPSAVAIPLFTSDLEHHHHHH	not soluble
MSLAQIKSLFATRLYHAPLSEHGPALDPAEFAASCYSIAEDDDAGQEWCEREGYPGYTSYASLTDLPWRFPIFADLVKSLDAHVAAFAEDLEFELDGKALRLEDIWINILPEGGVHGSHIHPHSVISGTTYVAMPEGTSALKLEDPRLPFMMAAPTRRKGAREELRTFRSVAPKVGDVLLWESWLRHEVPMNMAEEDRISVSFNYAWGEGHHHHHH	soluble
MGSDKIHHHHHHAAQARLDKARAMYENNEFFGAKNEIDSIRALYPKEVKVLKQGLTLMRQVEVKEAERNIAFCDSLLPIKLEEVEGLKKGFAFEKDSVYEEIGNYIWKQQTIERNVQRCYVRCGVNEEGEMYLASVYYGGRPIEHTGIKLSLKDGQFAETASIPYDGGLNYRFKDMGSTTEVVTYKGEHCVDAVKFIYDNEKERIKVEYTGGKPYIIYMADADKKAIVNTFNLATVLSDIKSMNTLKEKSEKKIAYLKNKLEE	not soluble
MSKIKRVLISVSDKTGIIEFAKELSKYNIEILSTGGTSKTLKDAGINVIDVSEHTQFPEIMNGRVKTLHPLIHGGILADRDNPEHLDAMLKNHIGQIDMVVVNLYPFVNTVKSGADFDTCIENIDIGGPSMVRSCAKNHKHTTIVTNPSQYDLVIKEMAENDGKTTLATRREFAKEAFAHTAEYDSHIANWFSKELDEEYPEKLFSVGTLKQVLRYGENPHQKAAVYSTDADCVSITNARQLQGKELSYNNLNDADGAFEMVCEYSEPSCAIIKHANPCGIASGKNAFEAWTKALACDPISAFGGIVAFNCEVDKEFAESLGKMFLEVIIAPSYTQEALDILAAKKNLRVLETGKVFDTKSSRMISKNIHGGILSQSYDNGGVDINDCKVVTDRAPTDKEWADLMFAWKAVKYVKSNAIVYARDTQTVGIGAGQMSRVDSARIGAEKAQAHQGAKGSAVASDAFFPFADGLEECIKAGATAVIQPGGSKNDQEVIDAANKAGITMVFTNMRHFRH	not soluble
MARLKTAQPNSSLRKIAVVVATAVSGMSVYAQAAVQPKEETITVTAAPAAQESAWGPAPTIAAKRSATTTKTDTPIEKTPQSVSVVTNEEMQMHQFQSVKEALGYTPGVTVSSRGASNTYDFVIIRGFSSVGLSQNNYLDGLKLQGNFYNDAVIDPYMLERVELMRGPTSVLYGKSNPGGIISMVSKRPTTEPLKEIQFKMGTDNLFQTGFDFSDSLDDNGEFSYRLTGLARSTNEQQKSSESQRYAIAPSFTWRPDEKTNFTFLSYFQNEPETGYYGWLPKEGTVEPLPNGKRLPTDFNEGASNNTYSRNEKMVGYSFEHGFNDTFTVRQNLRFVEMKTAQKSVYGTGIAADGHTLNRGTIVDNERLQNFSVDTQLESKFATGDIDHTLLTGVDFMRMRNDINATFGSAPSIDLYNNYHPEYFAFGGAEPYQMNESKQTGLYVQDQAEWNKWVFTLGGRYDWSKQATTVRQNSTTPTEGYIERNDHQFTWRGGVNYVFDNGISPYFSYSQSFEPSAFDLWSTPRVSYKPSKGEQYEAGVKYVPKDMPVVVTGAVYQLTKTNNLTADPTNPLAQVPAGEIRARGVELEAKAALTANINMTASYTYTDAEYTKDTNLKGNTPEQVPEHMASLWGDYTFNEGPLSGLTLGTGGRFIGSSYGDPANSFKVGSAAVMDAVVKYDLARFGMAGSSIAVNVNNLLDREYVASCFQTYGCFWGAERQVVATATFRF	not soluble
MFGNYISTSPEKIIMLALRIMQGIAKTLAEHVLDLKHSPLSKQAMKRQTLRLWAEYSLGTINKIIDMKSGPSNQSAEEMEFIRRLILIRRDIHSQLHSVGIDINDGTGD	not soluble
MGSDKIHHHHHHAEPAPSQEDMRLYTIASAPSAGRIEQDIKTLVGFGTRHTLSQTDSNAQGIGAARRWIETEFQRISAKCNGCLEVVTLSETVSGKRIPNPTEVVNVIAIQRGLTDPNRAVVMTGDIDSRVTDVMNSSAISPGANDNASGVAGTLEAARVLSQYQFAGTIIYAALSGEEQGLYGGDILINHAKAQGLQIQAVLNNDMIGNIAGINGVIDNHSVRVFSEGVRIAETSEEAKERYFSGGENDSASRNLARKIKSLADQYMTNLDVQLINRLDRFGRGGHHLPFNKAGFAAVRVMETNEHYHRQHQDIRTENGIAYGDVIEGVDFDFNAKLTALNAISLAAMAWAPAPPKEVKISGEVSADTVLKWTVNNKDKALVGYRVYWRNTTASEWTHSRYVGKLGQFTLKNLVIDNYLFGVASVSADGNTSPVVFPGAIGAF	not soluble
MTERKIFNRLKSVLAEKGKTNLWLTETLDKNKTTVSKWCTNDVQPSLETLFDIAEALNVDVRELIVSTKR	soluble
MSLLRIEPDLSHFKAGTYRFTPQMTVREMLKLLESGKEAQFPLRLVEGMRLSDYLKQLREAPYIKHTLSDDKYATVAQALELENPEWIEGWFWPDTWMYTANTTDVALLKRAHKKMVKAVDSAWEGRADGLPYKDKNQLVTMASIIEKETAVASERDQVASVFINRLRIGMRLQTDPTVIYGMGERYNGKLSRADLETPTAYNTYTITGLPPGAIATPGADSLKAAAHPAKTPYLYFVADGKGGHTFNTNLASHNKSVQDYLKVLKEKNAQEGHHHHHH	soluble
MGSDKIHHHHHHMTLVSTLSFLKKLNKNNNKEWFDKNRSAYEEAKKEVKALVQLVIEKTAVFDPSIASLEPKDCMFRINRDVRFSKDKSPYKTNMGFMIAPGGKKSIKGCYYVHIEPGNCFIAGGIWMPMPEHLKLIRQEIDYNGDALKKIFSSKDVKKYFSDFDEESKLIRMPKDYEETHPYAEWLKLKSFTVTFPIDEAIFSDKKVVEEITKPFKGIHALNAFLNGALDS	not soluble
MVMTVRVIAPDKTVWDAPAEEVILPSTTGQLGILSNHAPLLTALETGVMRVRQDREWVAIALMGGFAEVENNEVTILVNGAERGDTIDLEKAKAEFAAAQAALAQAEQGESKQAKIQATQAFRRARARLQAAGGVVEI	soluble
MVRVVRHSRGTCNRGLYEVRELARNRTLQQWGVEDSAELYGIRNWGAGYFDVAQNGDVVVYPFGHNRGPAVSIPEIIGGMRERGYDMPVLLRIENILDSQITSLHTSFRNAIGSLGYKGEYRGIFPIKVNQQQQVVEKIAQFGSHYHHGLEVGSKAELIAAVSQLRDREACLVCNGYKDEEFIDLGLHAVRLGFMCIFVLEMPGELDLILERGEALGVKPIIGVRAKLSVKAGGHWTDSGGERSTFGLTTSQIVDVVDRLKEKGMLDCFKLLHYHLGSQVPNIRDIRAAVMEACRIYAGLVQEGAAMGFLDLGGGLAVDYDGSHTNFVSSRNYTLDEYCADIVEAVMTTLDEQNIPHPHIVTESGRATVAYYSMLLFNILDVSRVEIGNLPDALPEDTPEPVRNMREVLAGMTLRNLQECYNDALYYRDAVRQLFLTGQVTLRQRTLSERLFWAIMKRIAQEKQKLKHVPKDLAEIDVALADIYYGNFSVFQSLPDSWAIDQLFPVMPVHRLQELPSRQGILSDITCDSDGRIDHFIDPQGMKGTLDLHPLRDGEEYYLGVFLVGAYQETLGDLHNLLGDTNVVSVRVHEDGTYEFVREIRGDSVADILSYVEYDPRRIYEDIRELAERAVREGRITASDRFRVMQAYEDGLRGYTYFERLEHHHHHH	not soluble
MSDLDTPTPSPHPVLLNLEQFLPYRLSVLSNRISGNIAKVYGDRYGMAIPEWRVITILALYPGSSASEVSDRTAMDKVAVSRAVARLLERGFIRRETHGDDRRRSMLALSPAGRQVYETVAPLVNEMEQRLMSVFSAEEQQTLERLIDRLAKDGLPRMASKD	soluble
MKIGIDAGGTLIKIVQEHDNRRYYRTELTTNIQKVIDWLNNEEIETLKLTGGNAGVIADQIHHSPEIFVEFDASSKGLEILLDEQGHQIEHYIFANVGTGTSFHYFDGKDQQRVGGVGTGGGMIQGLGYLLSNITDYKELTNLAQNGDRDAIDLKVKHIYKDTEPPIPGDLTAANFGNVLHHLDNQFTSANKLASAIGVVGEVITTMAITLAREYKTNHVVYIGSSFNNNQLLREVVENYTVLRGFKPYYIENGAFSGALGALYLLEHHHHHH	soluble
GMYAVPILNVYDFEVKKDKETSYKSATEDYVNKTMGVEQGVLGLFAATDERDKTTSYIVEIYNDYLAFSNHTKNQASKDFKAVIPQIAEGNLNSAEIDVQIAKDKKIEQNDNTFAVYTVIDVKPENDKEFAEIIKNIVETTFNEEGTLLVYLGTDRRNFNKWCLFEVYKDIDSYLNHRSAKYFKDYITQTKDMIAGKKRAELQVLKIENKGGLDYKKLY	soluble
MRHLLDFQGWSRTEVESLLDTARVMREVLERPIKKVPALQGFTVATVFFEPSTRTRISFELAARRMSADVVSFAAQTSSLQKGESYKDTLLTLEAMGVDAYVIRADSAGVPHQATRWVKGAVINGGDGRRAHPTQALLDAYTLLEALGTLEGKKVAIVGDILHSRVARSGAELLSLLGAQVFCAGPPSLLPQSLPGAHLTPRLEEALEEADAVMVLRLQKERMEAGLVHLEDYVARYQVTEKRLALAKPQAPLLHPGPMNRDVELEGTLADSARSLVNRQVQNGVAVRMAALYHLLVGKEKA	soluble
MGSDKIHHHHHHMEVFCDVDDFCAVFIPEWEKTLLTDGTRKRQRAGRMTMSEVMTIIILFQMSHHRDFKNFYIGYLAHFYKSAFPNLLSYTRFLEVMPTALVPLCSDFTCLKSEPTGTEFVDSTRIKVCHNLRIHRHKTLAGLACRGKGTMGWFYGFKLHLIVNHQGGIVAAKVTPANVHDTKPMNEMVRSDMDKLYADKGFISKALSSELQEKGVTLVTNVRKNMKEKVMSLWDRAMLSRRFIIETINDQLKNISQIEHSRHRSGHGFMLNMIAGLIAYQLKDNKPQLNITSAEFNAIAVMAR	not soluble
FASFSNFTLKYHEKRFQQYGYGLMLNDTNFPGGSSGSPLIGKDNKLNSIYFGVLEIYQSGSLARNDIGMSQILRTPQ	not soluble
MASPPPFHSQKLPGEYFRYKGVPFPVGLYSLESISLAENTQDVRDDDIFIITYPKSGTTWMIEIICLILKEGDPSWIRSVPIWERAPWCETIVGAFSLPDQYSPRLMSSHLPIQIFTKAFFSSKAKVIYMGRNPRDVVVSLYHYSKIAGQLKDPGTPDQFLRDFLKGEVQFGSWFDHIKGWLRMKGKDNFLFITYEELQQDLQGSVERICGFLGRPLGKEALGSVVAHSTFSAMKANTMSNYTLLPPSLLDHRRGAFLRKGVCGDWKNHFTVAQSEAFDRAYRKQMRGMPTFPWDEDPEEDGSPDPEPSPEPEPKPSLEPNTSLEREPRPNSSPSPSPGQASETPHPRPS	soluble
